For assay [1], the target named is ZIKV full-length envelope protein E with A264C, as displayed on virus-like particles (VLP-cvD) (Zika virus (strain PE243)). Kind of assay: non-reducing SDS-PAGE and Western blot of a disulfide-linked dimer; purified VLPs on SDS-PAGE under reducing (DTT) or nonreducing conditions, E detected with the monoclonal antibody DIII-1B. On the technique in general: A western blot detects proteins with antibodies after separation by electrophoresis.

Assay [2] has as its target ZIKV soluble envelope protein E, covalently stabilized dimer (sE-cvD), A264C, V5-tagged (Zika virus (strain ArD158095)). Description: non-reducing SDS-PAGE of a disulfide-linked dimer; purified sE proteins on 10% SDS-PAGE under reducing (DTT) and nonreducing conditions, gel stained with InstantBlue.

Turning to “ZIKV full-length envelope protein E with A264C, as displayed on virus-like particles (VLP-cvD) (natural protein)”, the stoichiometry N (usually a count of units in the complex or per binding partner) in assay [1] amounted to 2.

In the case of “ZIKV soluble envelope protein E, covalently stabilized dimer (sE-cvD), A264C, V5-tagged (domain or fragment)”, the stoichiometry N in assay [2] came to 2.
